Earlier results as cited in PMC7355470.
Read-outs that look alike come from different tables or passages of the source. Each block holds one substance with its values, some of them ahead of it.

Legend:
[1] = biological target: L-selectin (Homo sapiens) (UniProt P14151)
[2] = biological target: P-selectin (Homo sapiens) (UniProt P16109)
[3] = biological target: E-selectin (Homo sapiens) (UniProt P16581)
[4] = biological target: P-selectin (Homo sapiens) (UniProt P16109); remark: listed apart in the source
[5] = biological target: P-selectin (Homo sapiens) (UniProt P16109); remark: listed apart in the source
[6] = biological target: P-selectin (Homo sapiens) (UniProt P16109); remark: listed apart in the source
PSGL-1 (Homo sapiens) [7] = biological target: PSGL-1 (Homo sapiens) (UniProt Q14242)
ESL-1 (Mus musculus) = ESL-1 (Mus musculus) (UniProt Q61543); assay: SPR
Sequence of UniProt Q61543 (Q61543 28-1141): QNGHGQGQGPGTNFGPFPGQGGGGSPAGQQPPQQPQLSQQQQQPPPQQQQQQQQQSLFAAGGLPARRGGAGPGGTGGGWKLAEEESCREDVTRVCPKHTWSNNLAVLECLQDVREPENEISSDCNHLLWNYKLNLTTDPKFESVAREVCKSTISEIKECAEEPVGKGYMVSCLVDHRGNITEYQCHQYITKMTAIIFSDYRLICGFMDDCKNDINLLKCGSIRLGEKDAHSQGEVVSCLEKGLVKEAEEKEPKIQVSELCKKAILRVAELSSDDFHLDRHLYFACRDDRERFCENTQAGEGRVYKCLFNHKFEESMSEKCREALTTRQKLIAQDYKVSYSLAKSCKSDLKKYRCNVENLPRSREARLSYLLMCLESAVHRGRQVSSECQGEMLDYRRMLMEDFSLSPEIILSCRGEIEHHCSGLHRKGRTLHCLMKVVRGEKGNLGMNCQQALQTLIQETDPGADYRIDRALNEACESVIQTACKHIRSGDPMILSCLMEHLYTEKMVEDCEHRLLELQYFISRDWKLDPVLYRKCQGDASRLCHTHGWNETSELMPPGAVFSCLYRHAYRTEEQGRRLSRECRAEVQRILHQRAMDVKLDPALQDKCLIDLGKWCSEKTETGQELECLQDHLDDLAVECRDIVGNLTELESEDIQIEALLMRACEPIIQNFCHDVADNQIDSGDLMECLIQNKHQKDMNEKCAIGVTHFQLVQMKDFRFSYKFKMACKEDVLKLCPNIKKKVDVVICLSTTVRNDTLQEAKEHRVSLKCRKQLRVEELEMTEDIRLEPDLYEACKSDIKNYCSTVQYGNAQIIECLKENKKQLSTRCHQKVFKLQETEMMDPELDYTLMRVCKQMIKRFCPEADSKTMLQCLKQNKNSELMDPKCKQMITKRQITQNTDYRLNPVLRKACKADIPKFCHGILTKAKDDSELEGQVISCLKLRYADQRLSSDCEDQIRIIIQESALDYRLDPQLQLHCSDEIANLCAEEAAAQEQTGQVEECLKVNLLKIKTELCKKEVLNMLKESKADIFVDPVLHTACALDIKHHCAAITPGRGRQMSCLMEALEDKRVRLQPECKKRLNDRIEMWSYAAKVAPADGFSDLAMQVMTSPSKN

[8] = biological target: P-selectin (Homo sapiens) (UniProt P16109); remark: listed apart in the source
PSGL-1 (Homo sapiens) [9] = biological target: PSGL-1 (Homo sapiens) (UniProt Q14242); remark: listed apart in the source
GlyCAM-1 = GlyCAM-1 (UniProt Q02596)
Sequence of UniProt Q02596 (Q02596 20-151): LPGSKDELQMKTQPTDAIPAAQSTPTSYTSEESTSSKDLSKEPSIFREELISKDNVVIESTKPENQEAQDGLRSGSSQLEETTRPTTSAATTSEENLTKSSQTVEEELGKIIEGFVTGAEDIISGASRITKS

[10] = biological target: PSGL-1 glycosulfopeptide N-terminal binding region peptide (Homo sapiens) (UniProt Q14242)
[11] = biological target: PSGL-1 glycopeptide (non-sulfated) N-terminal binding region peptide (Homo sapiens) (UniProt Q14242)
[12] = biological target: PSGL-1 glycosulfopeptide N-terminal binding region peptide (Homo sapiens) (UniProt Q14242); remark: listed apart in the source
[13] = biological target: PSGL-1 glycosulfopeptide N-terminal binding region peptide (Homo sapiens) (UniProt Q14242); remark: listed apart in the source

Sequence of PSGL-1 (Q14242 42-320): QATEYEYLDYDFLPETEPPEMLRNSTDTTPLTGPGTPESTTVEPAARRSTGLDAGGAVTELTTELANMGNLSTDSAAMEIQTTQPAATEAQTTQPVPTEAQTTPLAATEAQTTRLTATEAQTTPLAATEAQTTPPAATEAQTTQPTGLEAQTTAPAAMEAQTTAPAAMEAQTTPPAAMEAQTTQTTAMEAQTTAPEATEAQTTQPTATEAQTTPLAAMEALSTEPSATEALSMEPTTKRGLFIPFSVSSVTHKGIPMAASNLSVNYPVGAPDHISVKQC
Sequence of PSGL-1 glycopeptide (non-sulfated) (Q14242 42-320): as above

- Kd [4]: 10 µM
- Kd [5]: 0.65 µM
- Kd [6]: 6 µM
Substance: PSGL-1 glucosulfopeptide (from UniProt Q14242)

- Kd [8]: 25 µM
Substance: PSGL-1 glycopeptide (non-sulfated) (from UniProt Q14242)

- Kd (GlyCAM-1): 108 µM
Substance: L-selectin (from UniProt P18337)

- Kd [10]: 0.65 µM
- Kd [11]: 25 µM
- Kd [12]: 6 µM
- Kd [13]: 10 µM
Substance: P-selectin (from UniProt P16109)

The remaining lines, values behind:

Substance: PSGL-1 (from UniProt Q14242)
- Kd [1]: 5 µM
- Kd [2]: 0.32 µM
- Kd [3]: 15 µM

Substance: E-selectin (from UniProt P16581)
- Kd (PSGL-1 (Homo sapiens) [7]): 15 µM
- Kd (ESL-1 (Mus musculus)): 62 µM

Substance: L-selectin (from UniProt P14151)
- Kd (PSGL-1 (Homo sapiens) [9]): 5 µM

Substance: E-selectin (from UniProt Q00690)
- Kd (ESL-1 (Mus musculus)): 62 µM
